Laboratory results reported in US20210163535A1 (KYUNGPOOK NATIONAL UNIVERSITY INDUSTRY ACADEMIC COOPERATION …, published 2021).
No end group written: not given here.

Molecular target: T1, wild-type CD44 (UniProt P16070-12 21-361, limits assumed)
T1 construct: The isoform is not defined beyond 'wild-type'
Assay: pull-down of cell lysate with biotinylated peptide on avidin beads, Western blot

T1 sequence (P16070 other isoform, or with tags, fused parts or gaps limits assumed): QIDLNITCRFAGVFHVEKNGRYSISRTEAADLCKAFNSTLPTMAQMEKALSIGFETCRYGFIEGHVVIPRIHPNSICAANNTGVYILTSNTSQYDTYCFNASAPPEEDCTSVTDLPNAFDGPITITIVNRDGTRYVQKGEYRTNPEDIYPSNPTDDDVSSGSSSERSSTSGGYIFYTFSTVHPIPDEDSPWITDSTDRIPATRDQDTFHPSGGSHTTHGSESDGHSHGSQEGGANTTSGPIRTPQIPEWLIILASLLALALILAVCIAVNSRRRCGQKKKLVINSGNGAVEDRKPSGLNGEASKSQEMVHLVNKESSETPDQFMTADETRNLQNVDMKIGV

Binder	binding result
CNEWQLKSC (cysteine pairing not given here; also: FITC-labelled or biotinylated, site of label not given here, Selected from a CX7C phage display library; also called clone-2; FITC-v6Pep-2) [v6Pep-2]	no binding
CNLNTIDTC (cysteine pairing not given here; also: FITC-labelled or biotinylated, site of label not given here, Selected from a CX7C phage display library; also called clone-1; FITC-v6Pep-1) [v6Pep-1]	no binding
